A word on the stoichiometry N: it is a count of units in the complex or per binding partner. Broadly, the Kd is the equilibrium constant for the complex coming apart.

In assay [1] the target is A3B4 subunit of glycinin accumulated in transgenic soybean seeds (post-translationally processed mature form) (Glycine max (soybean)). As to the kind of experiment: SEC; soluble extract of dry mature transgenic seeds on a Hi-Load 16/600 Superdex 200 pg column in potassium phosphate buffer (35 mM potassium phosphate, pH 7.6, 0.4 M NaCl), 1.0 mL/min; fractions analysed by SDS-PAGE and western blot with anti-A3B4 serum; size by comparison with molecular weight standards.

Assay [2] has as its target recombinant luminal domain of GmVSR (soybean vacuolar sorting receptor) (Glycine max (soybean)). Nature of the assay: SPR; GmVSR(LU) amine-coupled on a CM5 chip (1000-1200 RU), BIACORE2000; GST fusion proteins injected 180 s, eluted with salt buffer 180 s, 25 °C, 30 uL/min; control flow cell subtracted; three independent experiments. A general note: SPR reads the build-up and loss of mass on a sensor chip optically.

In the case of “A3B4 subunit of glycinin accumulated in transgenic soybean seeds (post-translationally processed mature form) (natural protein)”, in assay [1], the stoichiometry N is 6. In the case of PQESQKRAVA [GST fused with the 10-residue C-terminal peptide of A1aB1b], the dissociation constant Kd in assay [2] was 98 nM.

(Values after paper PMC5773536.)
